Results: PMC10743564, “Acceleration of Protein Degradation by 20S Proteasome-Binding Peptides Generated by In Vitro Artificial Evolution” (International Journal of Molecular Sciences, 2023)
Where no end group is shown, it is not given here. BAED = biotinylated photoreactive group derived from Sulfo-SBED

How the values were obtained:
human 20S proteasome = human 20S proteasome (Homo sapiens, UniProt P25787+P60900); assay: Photoaffinity labeling of 20S CP; format: binding; settings: UV 365 nm, 2D-PAGE, LC-MS identification
Experimental: After the reaction, the product was purified by reversed-phase HPLC, and molecular weight was confirmed by mass spectrometry, as described above.
(§1) The reaction mixture was exposed to UV light (365 nm) for 30 min on ice, and proteins were separated by SDS-PAGE, transferred onto a polyvinylidene difluoride membrane (ATTO Co., Ltd., Tokyo, Japan), and probed with horseradish peroxidase-conjugated streptavidin (Cytiva, Danaher Co., Washington, DC, USA). Chemiluminescence images were obtained using an ImageQuant LAS-4000 instrument (Cytiva). Isoelectric focusing for 2D-PAGE was performed using a DiscRun AE-6541 apparatus (ATTO Co., Ltd.) according to the manufacturer’s protocol. To identify the subunits of the 20S CP by LC-MS analysis, all bands visible following CBB staining were excised, dehydrated with acetonitrile for 10 min, and centrifuged in vacuo to dryness. Dried samples were placed in trypsin solution, and hydrolysis was carried out at 37 °C for 16 h. Reaction products were recovered using 0.1% formic acid and analyzed by LC-MS-IT-TOF (Shimadzu Corporation, Kyoto, Japan) and Mascot Version 2.4 (Matrix Science, London, UK).

26S holoenzyme = 26S holoenzyme (Homo sapiens, UniProt P25787+P60900); assay: Photoaffinity labeling of 26S holoenzyme; format: binding; settings: after UV irradiation
Experimental: as §1

[1] = biological target: T1, intracellular proteasomes of U251 cells (Homo sapiens, UniProt P25787+P60900); assay: Intracellular proteasome CT-L activity (Proteasome-Glo) in U251 cells; format: cell-based
T1 construct: endogenous in cells; host or cells: U251, RPMI8226, SH-SY5Y
Experimental: Intracellular proteasome activity was measured using the Proteasome-Glo Assay reagent (Promega Co.) according to the manufacturer’s protocol [46].

U251 cells = assay: Cell growth inhibition assay (CellTiter-Glo); format: cell-based, human
Experimental: The U251 cell line was kindly provided by Prof. Koji Kawakami (Kyoto University). RPMI8226 and SH-SY5Y cell lines were obtained from RIKEN BRC Cell Bank (Chiba, Japan). U251 and RPMI8226 cells were grown and maintained in RPMI1640 medium (Nacalai Tesque Inc.) supplemented with 10% fetal bovine serum, 100 units/mL penicillin, and 100 μg/mL streptomycin at 37 °C in 5% CO2. SH-SY5Y cells were grown and maintained in DMEM medium (Nacalai Tesque Inc.) supplemented with 10% fetal bovine serum, 100 units/mL penicillin, and 100 μg/mL streptomycin at 37 °C in 5% CO2.
U251, RPMI8226, or SH-SY5Y cells were seeded in triplicate wells in a 96-well plate at a density of 5 × 10^3 cells/well and incubated with various concentrations (0.1–100 µM) of inhibitory compounds dissolved in DMSO for 24 or 48 h. The amount of intracellular ATP was determined by CellTiter-Glo Luminescent Cell Viability Assay (Promega Co.) according to the manufacturer’s protocol. Intracellular proteasome activity was measured using the Proteasome-Glo Assay reagent (Promega Co.) according to the manufacturer’s protocol.

Molecule	Photoaffinity-labeled subunits of 20S CP (human 20S proteasome)	Photoaffinity labeling of 26S holoenzyme (in words) (26S holoenzyme)	Effect on CT-L activity of intracellular proteasomes (in words) [1]	Cell death (in words) (U251 cells)
BAED-20S-BP1(5-12): photoreactive biotinylated peptide: 20S-BP1(5-12) with N-terminal BAED group, made with Sulfo-SBED ({BAED}-SRLRHWWR)	α1 and β4 subunits	no detectable labeling		
CC(C)C[C@H](NC(=O)[C@H](Cc1ccccc1)NC(=O)c1cnccn1)B(O)O [bortezomib]			did not increase CT-L activity to the same degree	induced cancer cell death
